Consider 15 molecules from US20260216362A1, “ANTI-BDCA2 ANTIBODY-DRUG CONJUGATE AND USE THEREOF” (DUALITY BIOLOGICS (SHANGHAI) CO., LTD., priority 2022, published 2026).

Numbering of substitutions follows the chain as printed.

Test [1] deals with T1, human BDCA2 expressed on CHOK1 cells (human, UniProt Q8WTT0 1-213).
T1 construct: whole, on cells; also called CHOK1-hBDCA2; CHOK1-humanBDCA2
T1 sequence (looked up): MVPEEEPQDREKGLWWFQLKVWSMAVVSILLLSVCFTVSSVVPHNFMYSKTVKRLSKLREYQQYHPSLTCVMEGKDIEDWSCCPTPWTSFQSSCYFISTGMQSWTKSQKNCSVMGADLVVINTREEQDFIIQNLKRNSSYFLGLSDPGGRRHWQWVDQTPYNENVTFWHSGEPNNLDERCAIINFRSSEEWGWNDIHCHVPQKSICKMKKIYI
Description: FACS on CHOK1-hBDCA2 cells, MFI vs concentration; EC50 from the drawn table (fit of a flat control curve).

For test [2], the target named is cynomolgus monkey BDCA2 expressed on 293F cells (cynomolgus monkey). Nature of the test: FACS on 293F-cynoBDCA2 cells, MFI vs concentration; EC50 from the drawn table (fit of a flat control curve).
In test [3] the target is T2, Human BDCA2 Fc recombinant protein (human, UniProt Q8WTT0 45-213).
T2 construct: also called HumanBDCA2 Fc protein; not shown: The N-terminal human IgG1 Fc fragment and the linker
T2 sequence: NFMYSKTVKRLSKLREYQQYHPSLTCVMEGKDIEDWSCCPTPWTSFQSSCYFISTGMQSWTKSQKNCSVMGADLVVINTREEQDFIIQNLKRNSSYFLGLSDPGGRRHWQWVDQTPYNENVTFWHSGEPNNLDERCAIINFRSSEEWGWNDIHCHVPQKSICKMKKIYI
Nature of the test: ELISA, coated humanBDCA2 Fc. (In an ELISA, binding on a coated surface is turned into a signal by an enzyme label.)

The target in test [4] is T1, human BDCA2 expressed on CHOK1 cells. Nature of the test: FACS on CHOK1-hBDCA2 cells. How it is done:
(§1) The cells were collected and resuspended to 2×10\hat{ }6 cells/mL in an FACS buffer (PBS+2% FBS). The resuspended cells were added to a 3799 cell plate at 100 μL/well and centrifuged at 300 g, and the supernatant was discarded. […] The cells were resuspended and incubated at 4° C. for 1 h. The incubated cells were centrifuged at 300 g for 5 min and washed twice with the FACS buffer. 100 μL of Goat anti-Human IgG (H+L) Cross-Adsorbed Secondary Antibody, Alexa Fluor 488 (Sigma, A11013; 1:1000) secondary antibody was added. The cells were incubated at 4° C. for 1 h, washed twice with the FACS buffer, and resuspended in PBS. The fluorescence signals of the antibodies for binding to the cell surface were analyzed using an FACS (BD FACS Canto™ II) instrument, curves were fitted using GraphPad Prism6, and EC50 values of the antibodies or antibody-drug conjugates for binding to the BDCA2 antigen were calculated.

Test [5] concerns the target T3, cynomolgus monkey BDCA2 expressed on 293F cells (cynomolgus monkey, UniProt A0A2K5UWP4 1-212).
T3 construct: whole, on cells
T3 sequence: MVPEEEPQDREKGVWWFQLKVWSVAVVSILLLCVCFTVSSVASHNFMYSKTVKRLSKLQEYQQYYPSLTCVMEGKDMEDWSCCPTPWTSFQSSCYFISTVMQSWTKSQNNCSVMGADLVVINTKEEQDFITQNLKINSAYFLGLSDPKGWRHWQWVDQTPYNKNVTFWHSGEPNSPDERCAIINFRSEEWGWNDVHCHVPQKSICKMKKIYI
Nature of the test: FACS on 293F-cynoBDCA2 cells. Here is the method: as §1

For orientation: EC50 means the midpoint of the concentration-response curve. For the molecule hIgG1 (antibody), the EC50 in test [1] stood at 160000 nM; in test [2] it was 584 nM.

B1: mAb021 (antibody)
chain 1: DVQLQESGPGLVKPSQSLSLTCSVTGYSITSAYYWNWIRQFPGNKLECMGYITYDGNNYYSPSLKNRISITRDTSKNQFFLNLNSVTTEDTATYFCARGGDYDDGGFAFWGQGTLVTVSA
chain 2: DIQMTQSPASLSASVGETVTITCRASGNIHNYLAWYHQKQGKSPQLLVYNAKSLVDGVPSRFSGSGSGTQYSLRINSLQPEDFGSYYCQHFWIVPYTFGGGTKLEII
In the case of B1, the EC50 in test [3] was less than 0.3 nM.

B2: mAb030 (antibody)
chain 1: B1 chain 1 with T53S, N57S, S61N, N82S, A97V, F109Y
chain 2: B1 chain 2 with H37Q, S53T, V55A, G68E, R74K, S85N, Y87F, V94I, I107K
As for B2, in test [3], the EC50 was less than 0.3 nM.

B3: mAb027 (antibody)
chain 1: B1 chain 1 with I38V, K45Q, N57S, Y59N, S61N, N82K, F95Y, A97V, F109Y
chain 2: B1 chain 2 with H37Q, S53T, Q70E, R74K, S85I, Y87F, V94I, I107R
With B3, the EC50 in test [3] is less than 0.3 nM.

B4: Hu033-03 (antibody, human IgG1, kappa, V domains shown)
VH: EVQLVESGGGLVKPGGSLRLSCAASGFTFSSYGMSWVRQAPGKGLEWVSTISSGDSYTYYPDSVKGRFTISRDNAKNSLYLQMNSLRAEDTAVYYCARQIYYDYAYYFDFWGQGTTVTVSS
VL: DIVLTQSPASLAVSPGQRATITCRASESVSFRTSHLMHWYQQKPGQPPKLLIYGASNLESGVPARFSGSGSETDFTLTINPVEAEDTANYFCQQSIEDPPTFGGGTKVEIKR
notes: Humanized IgG1; also called Hu033-03(BM3)
B4: the EC50 was found to be 1.23 nM in test [4] and 1.91 nM in test [5].

B5: Hu033-03-ADC (antibody, human IgG1, kappa, V domains shown)
VH: B4 VH
VL: B4 VL
modifications: Compound 9 (glucocorticoid linker-payload) coupled to cysteine sulfhydryls after TCEP reduction, positions not given; average 4.01 per antibody by HIC
notes: also called Hu033-03 antibody-drug conjugate; BDCA2-ADC
Turning to B5, the EC50 in test [4] was determined as 1.6 nM; in test [5] it was 2.36 nM.

B6: mAb005 (antibody)
chain 1: QVQLKQSGPGLVQPSQSLSITCTVSGFSLTNYGVHWVRQSPGKGLEWLGVIWSGESTDYDAAFISRLSISKDNSKSQVFFKMNSLQADDSAIYYCARRRSHYYGYVMDYWGQGTSVTVSS
chain 2: DIVLTQSPASLAVSLGQRATISCKASQSIDYDGIGYLNWYQHKPGQPPKLLIYAASNLESGIPARFSGSGSGTDFTLNIHPVEEEDAATYYCQQSNEDPPTFGSGTKLEIK
As for B6, the EC50 in test [3] was less than 0.3 nM.

B7: mAb016 (antibody)
chain 1: B6 chain 1 with N31S, K81R
chain 2: B6 chain 2 with I29V, I34V
As to B7, the EC50 in test [3] is less than 0.3 nM.

B8: mAb019 (antibody)
chain 1: EVKLVESGGDLVQPGGSLKLSCAASGFTFSDYYMYWVRQTPEKRLEWVAYISYSGDSTYYPDTVKGRFTISRDNAKNTLFLQMSRLKSEDTAMYYCARHSPSFPYYFDYWGQGTALTVSS
chain 2: EIVLTQSPAITAASLGQKVTITCSASSSVSYMHWYQQKSGTSPKPWIYEISKLASGVPARFSGSGSGTSYSLTISSMEAEDAAIYYCQLWNYPLITFGGGTNLEIK
Regarding B8, the EC50 in test [3] is less than 0.3 nM.

B9: mAb001 (antibody)
chain 1: QIQLVQSGPELKKPGETVKISCKASGYTFTDFSMHWVKQAPGKGLKWMGWINTETGEPTYADDFKGRFAFSLETSASTAFLQINNLKNDDTTTYFCSRGGDGHPYWYFAVWGAGTTVTVSS
chain 2: DIVLTQSPASLAVSLGQRATISCRASQSVSTSSYSYMHWYQQKPGQPPKLLIKYASILESGVPARFSGSGSGTDFTLNIHPVEEEDTATYYCQHSWEIPFTFGSGTKLEIK
In the case of B9, in test [3], the EC50 was less than 0.3 nM.

B10: mAb002 (antibody)
chain 1: QIQLVQSGPELKKPGETVKISCRASGYSFTDYSMHWVKQAPGKGLKWVGWINTETGEPTYADDFKGRFALSLETSATSAYLQINNLKNEDTATYFCARGGDGFPYWYFNVWGAGTTVTVSS
chain 2: B9 chain 2 with A9T, A19T, T20N, Y34N, M37I, I57N, E59D, A88S
For B10, the EC50 in test [3] was less than 0.3 nM.

B11: mAb020 (antibody)
chain 1: DVQLQESGPGLVKPSQSLSLTCSVTGYSIASGYYWNWIRQFPGNKLEWMGYISFDGTYNYNPSLKDRFSITRDTSKNQFFLKLNSVTTEDTATYYCARGVDYPNAIDWWGQGTSVTVSS
chain 2: DIVLTQSPASLAVSLGQRATISCRASESVSMHVTHLIHWYQQKPGQPPKLLIYVASNLESGVPARFSGSGSETDFTLNIHPVEEEDAATYFCQQSFEDPWTFGGGTKLEIK
For the molecule B11, the EC50 in test [3] is less than 0.3 nM.

B12: mAb022 (antibody)
chain 1: B11 chain 1 with A30T, N104K, I106M
chain 2: B11 chain 2
In the case of B12, the EC50 in test [3] is less than 0.3 nM.

B13: mAb024 (antibody)
chain 1: EVQLVESGGDLVKPGGSLKLSCAASGFTFSSFGMSWVRQTPDKRLDWVATISSGDSYTYYPDSVKGRFSISRDNAKNTLYLQMSSLKSEDTAVYYCARQIYYDYAYYFDYWGQGTTLTVSS
chain 2: B11 chain 2 with M31F, H32R, V33S, T34S, I37M, Q41R, V54A, T89A, F96I, W100P
B13: the EC50 in test [3] was less than 0.3 nM.

B14: BIIB059 (antibody, human IgG1, kappa, V domains shown)
VH: DVQLVESGGGLVKPGGSLRLSCAASGFTFSTYTMSWVRQAPGKGLEWVATISPGDSFGYYYPDSVQGRFTISRDNAKNSLYLQMNSLRAEDTAVYYCTRDIYYNYGAWFAYWGQGTLVTVSS
VL: DIQLTQSPSSLSASVGDRVTITCKASQSVDYDGDSYMNWYQQKPGKAPKLLIYAASTLESGVPSRFSGSGSGTDFTLTISSLQPEDFATYYCQQANEDPRTFGQGTKVEIKR
notes: also called positive control antibody BIIB059
Turning to B14, a half-maximal response in test [4] (EC50) required 3.29 nM.
